Measurements taken from patent US20220048999A1 (Genmab, published 2022).
Numbering of substitutions follows the chain as printed. Names may count otherwise.

What was measured:
[1] = molecular target: T1, cynomolgus monkey (Macaca fascicularis) B7H4 transcript 1, full length, on HEK-293F cells (cynomolgus monkey, UniProt Q7Z7D3 25-282 (human entry)); assay: flow cytometry, HEK-293F cells transfected with cynomolgus monkey B7H4 (panel Cynomolgus monkey B7H4), about 0.0004-30 µg/ml, MFI PE
T1 construct: also called cynomolgus B7H4
T1 chain: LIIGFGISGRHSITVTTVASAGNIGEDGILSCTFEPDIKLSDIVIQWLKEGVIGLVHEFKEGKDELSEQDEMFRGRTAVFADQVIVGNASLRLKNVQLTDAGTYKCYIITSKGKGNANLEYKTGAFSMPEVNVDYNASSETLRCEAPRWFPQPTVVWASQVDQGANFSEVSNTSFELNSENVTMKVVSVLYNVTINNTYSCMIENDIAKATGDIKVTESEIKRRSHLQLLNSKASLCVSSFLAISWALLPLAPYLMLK
Protocol: (§1) Cells (3×10⁴ cells/well) were incubated in polystyrene 96-well round-bottom plates (Greiner bio-one, cat. no. 650180) with serial dilutions of antibodies (ranging from 0.000458 to 30 μg/mL in 4-fold dilution steps) in 100 μL PBS/0.1% BSA/0.02% azide (staining buffer) at 4° C. for 30 min. Experiments were performed in technical duplicate. After washing twice in staining buffer, cells were incubated in 50 μL secondary antibody at 4° C. for 30 min. As a secondary antibody, R-Phycoerythrin (PE)-conjugated goat-anti-human IgG F(ab′)₂ (1:500 in FACS buffer; Jackson ImmunoResearch Laboratories, Inc., West Grove, Pa., cat. no. 109-116-098), was used. Cells were washed twice in staining buffer, re-suspended in 30 μL FACS buffer containing Topro-3 (1:10,000 dilution) and analyzed on an iQue Screener (Intellicyt Corporation, USA). Binding curves were analyzed using non-linear regression (sigmoidal dose-response with variable slope) using Graph Pad Prism V7.02 software (GraphPad Software, San Diego, Calif., USA).

[2] = molecular target: T2, mouse (Mus musculus) B7H4, full length, on HEK-293F cells (mouse, UniProt Q7TSP5 25-257); assay: flow cytometry, HEK-293F cells transiently transfected with mouse B7H4 (panel Mouse B7H4), 0.000458-30 µg/ml, PE-anti-human IgG, MFI PE
T2 sequence: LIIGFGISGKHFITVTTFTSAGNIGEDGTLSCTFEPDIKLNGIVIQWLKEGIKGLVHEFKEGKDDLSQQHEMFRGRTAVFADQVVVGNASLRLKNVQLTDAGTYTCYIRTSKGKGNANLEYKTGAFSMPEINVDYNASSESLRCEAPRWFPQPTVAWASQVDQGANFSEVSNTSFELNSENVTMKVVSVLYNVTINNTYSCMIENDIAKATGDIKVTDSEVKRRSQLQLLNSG
Protocol: as §1

[3] = molecular target: T3, human B7H4, full length, on cells (human, UniProt Q7Z7D3 25-282); assay: flow cytometry, HEK-293F cells transfected with human B7H4 (panel Human B7H4), about 0.0004-30 µg/ml, MFI PE
T3 construct: On transiently transfected HEK cells or on B7H4-expressing human tumor cell lines; also called VTCN1
T3 sequence: T1 chain with I53L, L242F, A252S
Protocol: as §1

B1: IgG1-B7H4-C1-N52S-FEAR (antibody, V domains shown)
VH: QVQLQQWGAGLLKPSETLSLTCAVYGGSFSGYYWSWIRQPPGKGLEWIGEISHSGSTNYNPSLKSRVTISIDTSKNQFSLKLTSVTAADTAVFYCARGLFNWNFDSWGQGTLVTVSS
VL: DIQMTQSPSSLSASVGDRVTITCRASQGIRNDLGWYQQKPGKAPKRLIYGASSLQSGVPSRFSGSGSGTEFTLTISSLQPEDFATYYCLQHNSYPRTFGQGTTVEIKR
notes: Full-length human IgG1 with L234F, L235E, D265A, K409R (FEAR), kappa light chain; also called IgG1-B7H4-C1-052S-FEAR; IgG1-B7H4-C1-N525-FEAR
EC50 (read off the curve) [1]: ~0.1 µg/mL
EC50 (read off the curve) [2]: ~0.4 µg/mL
EC50 (read off the curve) [3]: ~0.04 µg/mL
